Source: US20120021972A1 (CADILA HEALTHCARE, published 2012)
Starred links: 1 amine or outer side, 2 acyl side, 3 side chain; linkers in the order of their positions; H or OH if unused. Non-standard residues stand in square brackets, D forms with d. No end group written: not given here. *: point of attachment. AMCB = 2-amino-5-(4-chloro-2-methylphenyl)pentanoic acid, Cc1cc(Cl)ccc1CCC[C@H](N[*:1])C(=O)[*:2]; Bip(2'-Et-4'-OMe) = CCc1cc(OC)ccc1-c1ccc(C[C@H](N)C(=O)O)cc1; Leu(5,5,5,5',5',5'-F6) = N[C@@H](CC(C(F)(F)F)C(F)(F)F)C(=O)O; Nva(5-(3,5-Me2Ph)) = Cc1cc(C)cc(CCC[C@H](N)C(=O)O)c1; 2F‑APPA = 2-amino-5-(2-fluorophenyl)pentanoic acid; αMePhe(2-F) = C[C@](N)(Cc1ccccc1F)C(=O)O; hhPhe = N[C@@H](CCCc1ccccc1)C(=O)O; αMeF = C[C@](N)(Cc1ccccc1)C(=O)O; NMeD = CN[C@@H](CC(=O)O)C(=O)O; aThr = C[C@H](O)[C@H](N)C(=O)O; NMeAPPA = not defined here; CNB = not defined here; Aib = CC(C)(N)C(=O)O; Moc = COC(=O)*

Biological target: human GLP-1 receptor (human, UniProt P43220 24-463)
Sequence (P43220 24-463): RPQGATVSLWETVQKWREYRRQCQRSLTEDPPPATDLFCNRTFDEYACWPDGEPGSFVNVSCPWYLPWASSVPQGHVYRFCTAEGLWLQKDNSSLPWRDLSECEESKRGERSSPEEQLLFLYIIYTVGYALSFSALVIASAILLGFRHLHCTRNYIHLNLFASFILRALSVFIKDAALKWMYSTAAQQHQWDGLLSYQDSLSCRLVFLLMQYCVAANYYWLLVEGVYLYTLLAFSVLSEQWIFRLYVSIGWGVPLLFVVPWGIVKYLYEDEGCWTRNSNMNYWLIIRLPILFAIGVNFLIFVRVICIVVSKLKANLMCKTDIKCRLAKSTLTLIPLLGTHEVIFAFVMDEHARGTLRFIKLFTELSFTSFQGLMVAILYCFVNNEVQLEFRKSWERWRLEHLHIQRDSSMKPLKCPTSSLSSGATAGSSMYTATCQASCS
Experiment: cell-based or functional assay

Row | Binder | cAMP release, % activity, 1 nM [%] | cAMP release, % activity, 10 nM [%] | cAMP release, % activity, 100 nM [%] | cAMP release, % activity, 1 µM [%] | cAMP release, % activity, 10 µM [%]
1 | H[Aib][Leu(5,5,5,5',5',5'-F6)]GT[αMePhe(2-F)]TSD[Bip(2'-Et-4'-OMe)][Nva(5-(3,5-Me2Ph))] [Seq. ID. No. 235: H-Aib-(Hfl)-GT-(α-Me-2F-Phe)-TSD-Bip(OMe)-(ADMP)] | 99 | 99 | 99 | 99 | 99
2 | Moc-H[Aib]QGT[αMePhe(2-F)]TSD[Bip(2'-Et-4'-OMe)][2F‑APPA] (also: reduced (CH2) bonds between 9-10 and 10-11) [Seq. ID. No. 196: CH3OCO-H-Aib-QGT-(α-Me-2F-Phe)-TSD-(CH2)-BiP(OMe)-(CH2)-(2F-APPA)] | 39 | 81 | 89 | 96 | 99
3 | H[Aib][CNB]GTFTSD[Bip(2'-Et-4'-OMe)][AMCB] (reading uncertain) [Seq. ID. No. 32: H-Aib-(CNB)-GTFTSD-Bip(OMe)-(AMCB)] | 39 | 80 | 88 | 96 | 99
4 | H[Aib]QG[aThr][αMePhe(2-F)][aThr]SD[Bip(2'-Et-4'-OMe)][2F‑APPA] (also: reduced (CH2) bonds Z9-Z10 and Z10-Z11) [Seq. ID. No. 203: H-Aib-QG-T(allo)-(α-Me-2F-Phe)-T(allo)-SD-(CH2)-Bip(OMe)-(CH2)-(2F-APPA)] | 86 | 99 | 99 | 99 | 99

Other lines, results leading:

Row | cAMP release, % activity, 1 nM [%] | cAMP release, % activity, 10 nM [%] | cAMP release, % activity, 100 nM [%] | cAMP release, % activity, 1 µM [%] | cAMP release, % activity, 10 µM [%] | Binder
5 | 46 | 85 | 90 | 99 | 99 | Ac-H[Aib][Leu(5,5,5,5',5',5'-F6)]GT[αMePhe(2-F)]TSD[Bip(2'-Et-4'-OMe)][hhPhe] [Seq. ID. No. 210: CH3CO-H-Aib-(Hfl)-GT-(α-Me-2F-Phe)-TSD-Bip(OMe)-(APPA)]
6 | 99 | 99 | 99 | 99 | 99 | H[Aib][Leu(5,5,5,5',5',5'-F6)]GT[αMePhe(2-F)][aThr]SD[Bip(2'-Et-4'-OMe)][2F‑APPA] [Seq. ID. No. 224: H-Aib-(Hfl)-GT-(α-Me-2F-Phe)-T(allo)-SD-Bip(OMe)-(2F-APPA)]
7 | 93 | 99 | 99 | 99 | 99 | H[Aib][Leu(5,5,5,5',5',5'-F6)]G[aThr][αMePhe(2-F)][aThr]S[NMeD][NMeBip(OMe)][NMeAPPA] (reading uncertain) [Seq. ID. No. 220: H-Aib-(Hfl)-G-T(allo)-(α-Me-2F-Phe)-T(allo)-S-(NMe)D-((NMe)Bip(OMe))-((NMe)(APPA))]
8 | 93 | 99 | 99 | 99 | 99 | H[Aib][Leu(5,5,5,5',5',5'-F6)]G[aThr][αMePhe(2-F)][aThr]SD[Bip(2'-Et-4'-OMe)][2F‑APPA] (also: thioamide (C═S) bonds Z9-Z10 and Z10-Z11) [Seq. ID. No. 216: H-Aib-(Hfl)-G-T(allo)-(α-Me-2F-Phe)-T(allo)-SD-(C═S)-Bip(OMe)-(C═S)-(2F-APPA)]
9 | 82 | 87 | 92 | 99 | 99 | Moc-H[Aib]QG[aThr][αMePhe(2-F)][aThr]SD[Bip(2'-Et-4'-OMe)][hhPhe] (also: reduced (CH2) bonds between 9-10 and 10-11) [Seq. ID. No. 198: CH3OCO-H-Aib-QG-T(allo)-(α-Me-2F-Phe)-T(allo)-SD-(CH2)-Bip(OMe)-(CH2)-(APPA)]
10 | 99 | 99 | 99 | 99 | 99 | H[Aib][Leu(5,5,5,5',5',5'-F6)]GT[αMeF]TSD[Bip(2'-Et-4'-OMe)][hhPhe] [Seq. ID. No. 230: H-Aib-(Hfl)-GT-(α-Me-Phe)-TSD-Bip(OMe)-(APPA)]
